Measured values reported in US20180064666A1 (BETH ISRAEL DEACONESS MEDICAL CENTER, published 2018).

How the values were obtained:
[1] = biological target: T1, Erk1 (endogenous, member of Erk1/2) (human (endogenous in human cell lines), UniProt P27361 2-379); experiment: reciprocal co-IP from HMLE lysates, western blot (FIG. 45C)
T1 construct: one entry is written for each member; also called total Erk1/2

[2] = biological target: T2, Erk2 (endogenous, member of Erk1/2) (human (endogenous in human cell lines), UniProt P28482 2-360); experiment: as above
T2 construct: one entry is written for each member; also called total Erk1/2

[3] = biological target: T1, Erk1 (endogenous, member of Erk1/2); experiment: co-IP from HEK293 cells (FIG. 45D)
[4] = biological target: p-Erk1 (phosphorylated Erk1, member of p-Erk1/2) (human (endogenous in human cell lines), UniProt P27361 2-379, phosphorylated (p-Erk1/2, induced by constitutively active MEK1); sites not given); experiment: co-IP from HEK293 cells (FIG. 45D)
[5] = biological target: p-Erk2 (phosphorylated Erk2, member of p-Erk1/2) (human (endogenous in human cell lines), UniProt P28482 2-360, phosphorylated (p-Erk1/2, induced by constitutively active MEK1); sites not given); experiment: co-IP from HEK293 cells (FIG. 45D)
[6] = biological target: T2, Erk2 (endogenous, member of Erk1/2); experiment: co-IP from HEK293 cells (FIG. 45D)

Measured: binding result

T2 sequence (P28482 2-360 limits assumed): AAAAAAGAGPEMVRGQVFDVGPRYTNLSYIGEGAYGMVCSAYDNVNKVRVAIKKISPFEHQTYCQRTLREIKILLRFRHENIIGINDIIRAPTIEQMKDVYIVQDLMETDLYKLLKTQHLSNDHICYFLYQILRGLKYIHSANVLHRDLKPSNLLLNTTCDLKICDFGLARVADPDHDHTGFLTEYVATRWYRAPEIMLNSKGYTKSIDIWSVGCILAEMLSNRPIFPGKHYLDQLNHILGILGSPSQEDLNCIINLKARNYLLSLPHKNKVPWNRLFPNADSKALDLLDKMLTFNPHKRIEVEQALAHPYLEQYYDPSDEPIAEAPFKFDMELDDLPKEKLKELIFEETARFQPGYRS
T1 sequence (P27361 2-379 limits assumed): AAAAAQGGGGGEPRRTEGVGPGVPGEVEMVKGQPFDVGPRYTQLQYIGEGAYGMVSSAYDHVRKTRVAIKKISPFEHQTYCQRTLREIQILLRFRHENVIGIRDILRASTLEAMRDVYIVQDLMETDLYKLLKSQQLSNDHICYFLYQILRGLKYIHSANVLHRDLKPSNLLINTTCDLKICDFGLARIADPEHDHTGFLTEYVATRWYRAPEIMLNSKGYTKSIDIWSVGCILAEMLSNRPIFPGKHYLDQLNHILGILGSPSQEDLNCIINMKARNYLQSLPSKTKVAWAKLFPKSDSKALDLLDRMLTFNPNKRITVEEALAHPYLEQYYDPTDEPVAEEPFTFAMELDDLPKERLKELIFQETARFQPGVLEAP
Chain of p-Erk2 (phosphorylated Erk2, member of p-Erk1/2) (P28482 2-360 limits assumed): as the sequence (P28482 2-360 limits assumed) above
Chain of p-Erk1 (phosphorylated Erk1, member of p-Erk1/2) (P27361 2-379 limits assumed): as the sequence (P27361 2-379 limits assumed) above

B1: endogenous Rab2A (enzyme, human (endogenous in human HMLE cells), UniProt P61019 2-212, looked up)
chain: AYAYLFKYIIIGDTGVGKSCLLLQFTDKRFQPVHDLTIGVEFGARMITIDGKQIKLQIWDTAGQESFRSITRSYYRGAAGALLVYDITRRDTFNHLTTWLEDARQHSNSNMVIMLIGNKSDLESRREVKKEEGEAFAREHGLIFMETSAKTASNVEEAFINTAKEIYEKIQEGVFDINNEANGIKIGPQHAATNATHAGNQGGQQAGGGCC
binds: [1] | [2]

B2: Flag-Rab2A (enzyme, UniProt P61019 1-212, looked up, not shown: small tags and cut ends)
chain: MAYAYLFKYIIIGDTGVGKSCLLLQFTDKRFQPVHDLTIGVEFGARMITIDGKQIKLQIWDTAGQESFRSITRSYYRGAAGALLVYDITRRDTFNHLTTWLEDARQHSNSNMVIMLIGNKSDLESRREVKKEEGEAFAREHGLIFMETSAKTASNVEEAFINTAKEIYEKIQEGVFDINNEANGIKIGPQHAATNATHAGNQGGQQAGGGCC
notes: also called wild-type Rab2A
binds: [3] | [4] | [5] | [6]
